The series addresses T1, DasR (Streptomyces verticillus ATCC 15003, UniProt A0A7M1Y6D7 1-256).
T1 sequence: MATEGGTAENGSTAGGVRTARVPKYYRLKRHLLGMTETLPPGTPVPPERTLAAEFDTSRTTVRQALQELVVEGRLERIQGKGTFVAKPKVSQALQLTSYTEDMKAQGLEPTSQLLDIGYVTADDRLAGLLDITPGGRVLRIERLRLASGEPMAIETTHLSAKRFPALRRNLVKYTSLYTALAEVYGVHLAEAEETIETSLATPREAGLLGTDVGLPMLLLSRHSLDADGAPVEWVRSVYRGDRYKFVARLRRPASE
Put plainly: EMSA; EMSA buffer (composition, pH and temperature not given), 30 min incubation, 6% native polyacrylamide gel. Particulars: protein: recombinant, tags: C-terminal 6xHis (introduced by reverse primer), chain copies: 2, blunt.

From article PMC7017467, “Enhancement of bleomycin production in Streptomyces verticillus through global metabolic regulation of N-acetylglucosamine and assisted metabolic profiling analysis” come the findings set out here.

B1: PDasA (dsDNA)
DNA 1: CCAAAAGGTCTAGGCCAAGCTGCGGGCACTGGTCTAAACCATTAAAGACCACTTTTCGGTCCTGAGGAGA
DNA 2: TCTCCTCAGGACCGAAAAGTGGTCTTTAATGGTTTAGACCAGTGCCCGCAGCTTGGCCTAGACCTTTTGG
As for B1, the binding result (label: 5'-Cy5) was “binds”.

B2: PBlmR (dsDNA)
DNA 1: GAGAGCACTGTAAGCCCGAACCCGCAAGGATGACGAATTGCAAAATTGTGCAAGTCGCTACATGATGGTCCGGCTGTGCCCGCAGGTAGCCGCGGGCACAGCACCAGACGCTGCCTCCGCGCACCGCGCGGGAGGCCCGGTGAGGCGAGAGGCTGAGGTTCC
DNA 2: GGAACCTCAGCCTCTCGCCTCACCGGGCCTCCCGCGCGGTGCGCGGAGGCAGCGTCTGGTGCTGTGCCCGCGGCTACCTGCGGGCACAGCCGGACCATCATGTAGCGACTTGCACAATTTTGCAATTCGTCATCCTTGCGGGTTCGGGCTTACAGTGCTCTC
Take B2: the binding result is “no binding”.
